Data on 23 molecules can be found in patent US20210355194A1 (TWIST BIOSCIENCE, published 2021).

For assay [1], the target named is SARS-COV2-S1 RBD (mouse IgG2Fc tag) (SARS-CoV-2, UniProt P0DTC2 319-537). The experiment in a line: FACS, S1 RBD-mFc on Vero E6 (ACE2).
For assay [2], the target named is T1, Acro SARS-CoV-2 (COVID-19) S1 protein (SARS-CoV-2, UniProt P0DTC2 16-685).
T1 construct: also called SARS-CoV-2 S1
The experiment in a line: SPR. (Surface plasmon resonance follows binding to a sensor surface in real time, without labels.)

Assay [3] addresses T2, SARS-COV2-S1 RBD (mouse IgG2Fc tag) (SARS-CoV-2, UniProt P0DTC2 319-537). The experiment in a line: column not explained; likely FACS, S1 RBD on Vero E6.
Assay [4] has as its target T2, SARS-COV2-S1 RBD (mouse IgG2Fc tag). The experiment in a line: FACS, blocks S1 RBD-mFc binding to ACE2 on Vero E6. In general terms: Flow cytometry measures light scatter and fluorescence of single cells or particles in a stream.
The target in assay [5] is T3, Acro SARS-CoV-2 (COVID-19) S1 protein (SARS-CoV-2, UniProt P0DTC2 16-685).
T3 construct: also called SARS-CoV-2 S1
The experiment in a line: SPR. The source holds these as a separate data set.

For assay [6], the target named is T2, SARS-COV2-S1 RBD (mouse IgG2Fc tag).
The target of a further assay is human ACE2 (human, UniProt Q9BYF1 18-740).
Assay [7] concerns the target SARS-CoV-2 spike on live SARS-CoV-2 virus (SARS-CoV-2, UniProt P0DTC2 14-1273). The experiment in a line: cell-based or functional assay.

Like-named read-outs stand apart in the source and are kept apart here.

human ACE2, sequence (Q9BYF1 18-740 limits assumed): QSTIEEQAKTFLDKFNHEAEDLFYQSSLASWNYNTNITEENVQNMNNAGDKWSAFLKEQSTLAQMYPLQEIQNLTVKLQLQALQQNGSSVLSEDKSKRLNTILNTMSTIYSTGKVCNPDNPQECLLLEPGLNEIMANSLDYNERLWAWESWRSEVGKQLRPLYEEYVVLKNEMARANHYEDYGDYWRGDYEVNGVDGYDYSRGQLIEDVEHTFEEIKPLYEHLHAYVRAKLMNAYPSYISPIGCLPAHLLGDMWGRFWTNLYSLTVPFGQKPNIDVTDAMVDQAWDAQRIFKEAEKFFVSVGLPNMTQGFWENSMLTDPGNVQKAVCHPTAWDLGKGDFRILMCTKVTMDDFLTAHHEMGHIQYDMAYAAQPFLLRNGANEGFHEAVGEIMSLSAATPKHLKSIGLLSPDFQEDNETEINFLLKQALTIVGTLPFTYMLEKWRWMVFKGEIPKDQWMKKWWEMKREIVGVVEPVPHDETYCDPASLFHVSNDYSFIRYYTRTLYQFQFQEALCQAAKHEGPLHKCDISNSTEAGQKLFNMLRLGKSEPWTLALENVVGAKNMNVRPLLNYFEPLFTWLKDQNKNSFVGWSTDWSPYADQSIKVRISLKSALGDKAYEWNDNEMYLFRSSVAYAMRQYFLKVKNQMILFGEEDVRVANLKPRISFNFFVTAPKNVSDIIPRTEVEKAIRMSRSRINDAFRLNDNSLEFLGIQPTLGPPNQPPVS

B1: variant 6-55 (Fc fusion)
VHH: EVQLVESGGGLVQPGGSLRLSCAASGFTMSSSWMGWFRQAPGKEREFVARITSGGSTGYADSVKGRFTISADNSKNTAYLQMNSLKPEDTAVYYCASVDGYFDYWGQGTLVTVSS
notes: VHH-Fc
As for B1, the “Competition Factor” value in assay [1] was found to be 7.98. In assay [2], this molecule came in with a Kd of 0.0252 µM.

B2: variant 6-55 (Fc fusion)
VHH: B1 VHH
For B2, the “MFI Fold Decrease” value in assay [3] was 7.98 fold. The same molecule yielded an IC50 in assay [4] of 0.00097 µM. The molecule further displayed a Kd in assay [5] of 0.0252 µM.

B3: variant 6-20 (Fc fusion)
VHH: EVQLVESGGGLVQPGGSLRLSCAASGSTLPYHAMGWFRQAPGKEREFVAAITWNGASTSYADSVKGRFTISADNSKNTAYLQMNSLKPEDTAVYYCARDRYYDTSASYFESETWGQGTLVTVSS
In the case of B3, the “MFI Fold Decrease” value in assay [3] was determined as 9.95 fold. In assay [4], this molecule had an IC50 of 0.00076 µM. In addition, in assay [5], the Kd turned out to be 0.0209 µM.

B4: variant 5-55 (Fc fusion)
VHH: EVQLVESGGGLVQPGGSLRLSCAASGIDVNRNAMGWFRQAPGKEREFVAAITWSGGWRYYADSVKGRFTISADNSKNTAYLQMNSLKPEDTAVYYCATTFGDAGIPDQYDFGWGQGTLVTVSS
As to B4, the IC50 in assay [6] is 0.00145 µM.

B5: 4-49 (VHH)
VHH: EVQLVESGGGLVQPGGSLRLSCAASGRTFGDYIMGWFRQAPGKERESVAAINWSAGYTAYADSVKGRFTISADNSKNTAYLQMNSLKPEDTAVYYCARASPNTGWHFDHWGQGTLVTVSS
In the assay with human ACE2, B5 gave an IC50 of 0.058 µM. In other words, the double-digit nanomolar range.

B6: variant 5-49 (Fc fusion)
VHH: EVQLVESGGGLVQPGGSLRLSCAASGRTSTVNGMGWFRQAPGKEREFVASISQSGAATAYADSVKGRFTISADNSKNTAYLQMNSLKPEDTAVYYCAADRTYSYSSTGYYWGQGTLVTVSS
In assay [6], B6 displayed an IC50 of 0.00561 µM.

B7: variant 6-26 (Fc fusion)
VHH: EVQLVESGGGLVQPGGSLRLSCAASGDTFSTSWMGWFRQAPGKEREFVATINTGGGTNYADSVKGRFTISADNSKNTAYLQMNSLKPEDTAVYYCARVTTSFDYWGQGTLVTVSS
Take B7: the “MFI Fold Decrease” value in assay [3] came to 6.41 fold. Also, the IC50 in assay [4] came to 0.00107 µM. The same molecule came in with a Kd in assay [5] of 0.0387 µM.

B8: 4-121 (VHH)
VHH: EVQLVESGGGLVQPGGSLRLSCAASGTAASFNPMGWFRQAPGKEREFVAAITSGGSTNYADSVKGRFTISADNSKNTAYLQMNSLKPEDTAVYYCAAIAYEEGVYRWDWGQGTLVTVSS
B8 yielded an IC50 with human ACE2 of 0.00091 µM.

B9: variant 6-78 (Fc fusion)
VHH: EVQLVESGGGLVQPGGSLRLSCAASGRTYDAMGWFRQAPGKEREFVASVTSGGYTHYADSVKGRFTISADNSKNTAYLQMNSLKPEDTAVYYCAKFGRKIVGATELDYWGQGTLVTVSS
notes: VHH-Fc
On to B9, for which the “Competition Factor” value in assay [1] is 9.27. The affinity in assay [2], expressed as Kd, was 0.0189 µM.

B10: variant 6-78 (Fc fusion)
VHH: B9 VHH
For B10, the “MFI Fold Decrease” value in assay [3] came to 9.27 fold. Also, the IC50 in assay [4] came out at 0.000743 µM. This molecule also had a Kd in assay [5] of 0.0189 µM.

B11: variant 5-56 (Fc fusion)
VHH: EVQLVESGGGLVQPGGSLRLSCAASGRTFSSNMGWFRQAPGKEREFVARIFGGDRTLYADSVKGRFTISADNSKNTAYLQMNSLKPEDTAVYYCADINGDWGQGTLVTVSS
With B11, it took 105 mg/L to reach the 80% level in assay [7] (EC80). Also, in assay [6], half-maximal inhibition (IC50) required 0.00068 µM. Also, binding in assay [5] was characterised by a dissociation constant (Kd) of 0.0543 µM.

B12: variant 6-73 (Fc fusion)
VHH: EVQLVESGGGLVQPGGSLRLSCAASGHTFSGYAMGWFRQAPGKEREFVAVITREGSTYYADSVKGRFTISADNSKNTAYLQMNSLKPEDTAVYYCARLGGEGFDYWGQGTLVTVSS
notes: VHH-Fc
With B12, in assay [1], the “Competition Factor” value was determined as 7.99. The Kd in assay [2] amounted to 0.103 µM.

B13: variant 6-73 (Fc fusion)
VHH: B12 VHH
As for B13, the “MFI Fold Decrease” value in assay [3] is 7.99 fold. In assay [4], this molecule had an IC50 of 0.00101 µM. In assay [5], this molecule displayed a Kd of 0.103 µM.

B14: 4-52 (VHH)
VHH: EVQLVESGGGLVQPGGSLRLSCAASGRSFSNSVMGWFRQAPGKEREFVARITWNGGSTYYADSVKGRFTISADNSKNTAYLQMNSLKPEDTAVYYCATTENPNPRWGQGTLVTVSS
In turn, B14 had an IC50 with human ACE2 of 0.00035 µM. In other words, the sub-nanomolar range.

B15: variant 6-60 (Fc fusion)
VHH: EVQLVESGGGLVQPGGSLRLSCAASGDTYGSYWMGWFRQAPGKEREFVATISQSGAATAYADSVKGRFTISADNSKNTAYLQMNSLKPEDTAVYYCAGLLRYSGTYYDAFDVWGQGTLVTVSS
notes: VHH-Fc
As to B15, in assay [1], the “Competition Factor” value was 12.6. The molecule further yielded a Kd in assay [2] of 0.0201 µM.

B16: variant 6-60 (Fc fusion)
VHH: B15 VHH
On to B16, for which the “MFI Fold Decrease” value in assay [3] came to 12.6 fold. Moreover, in assay [4], the half-inhibitory concentration (IC50) worked out at 0.00131 µM. This molecule returned a Kd in assay [5] of 0.0201 µM.

B17: variant 5-47 (Fc fusion)
VHH: EVQLVESGGGLVQPGGSLRLSCAASGFTFGSYDMGWFRQAPGKEREFVTAINWSGARTAYADSVKGRFTISADNSKNTAYLQMNSLKPEDTAVYYCAARSVYSYEYNWGQGTLVTVSS
As for B17, it took 2.46 mg/L to reach the 80% level in assay [7] (EC80). The same molecule gave an IC50 in assay [6] of 0.0008 µM. For the same molecule, binding in assay [5] was put at a Kd of 0.0277 µM.

B18: variant 5-29 (Fc fusion)
VHH: EVQLVESGGGLVQPGGSLRLSCAASGFTFDDYPMGWFRQAPGKEREGVASVLRGGYTWYADSVKGRFTISADNSKNTAYLQMNSLKPEDTAVYYCAKDWATGLAWGQGTLVTVSS
On to B18, for which, in assay [6], half-maximal inhibition (IC50) required 0.00219 µM.

B19: variant 5-60 (Fc fusion)
VHH: EVQLVESGGGLVQPGGSLRLSCAASGRSFSSHRMGWFRQAPGKEREFVAAIMWSGSHRNYADSVKGRFTISADNSKNTAYLQMNSLKPEDTAVYYCAAIAYEEGVYRWDWGQGTLVTVSS
B19: the IC50 in assay [6] amounted to 0.00215 µM. In assay [5], this molecule displayed a Kd of 0.0294 µM.

B20: variant 5-67 (Fc fusion)
VHH: EVQLVESGGGLVQPGGSLRLSCAASGFNVNDYAMGWFRQAPGKEREFVAGITSSVGVTNYADSVKGRFTISADNSKNTAYLQMNSLKPEDTAVYYCAADIFFVNWGRGTLVTVSS
For B20, the “EC80” value in assay [7] was 1.57 mg/L. In addition, in assay [6], half-maximal inhibition (IC50) required 0.00076 µM. The molecule further came in with a Kd in assay [5] of 0.0221 µM.

B21: variant 5-15 (Fc fusion)
VHH: EVQLVESGGGLVQPGGSLRLSCAASGFTFDGAAMGWFRQAPGKEREFVATIRWTNSTDYADSVKGRFTISADNSKNTAYLQMNSLKPEDTAVYYCARGRYGIVERWGQGTLVTVSS
The molecule B21 displayed an IC50 in assay [6] of 0.00219 µM. In other words, the single-digit nanomolar range.

B22: variant 6-76 (Fc fusion)
VHH: EVQLVESGGGLVQPGGSLRLSCAASGLAFDFDGMGWFRQAPGKEREGVAAINSGGSTYYADSVKGRFTISADNSKNTAYLQMNSLKPEDTAVYYCARFFRAHDYWGQGTLVTVSS
notes: VHH-Fc
With B22, the “Competition Factor” value in assay [1] is 9.96. Further, the Kd in assay [2] worked out at 0.0335 µM.

B23: variant 6-76 (Fc fusion)
VHH: B22 VHH
In the case of B23, the “MFI Fold Decrease” value in assay [3] was determined as 9.96 fold. Also, in assay [4], the IC50 came to 0.00111 µM. Besides, the dissociation constant Kd in assay [5] was 0.0335 µM.

One may read the Kd as the constant that tells how readily two partners part at equilibrium. Read a low Kd as tighter binding. The term IC50 denotes the point on the concentration scale where inhibition reaches its midpoint. A word on the EC80: it is the concentration needed for an effect of 80%.
